Experimental data from patent US20140336130A1 (PHIGENIX, INC., priority 2011, published 2014).

Experiments:
Format in all cases: cell-based, human
LNCaP [1] = assay: MTT cell viability assay, LNCaP; conditions: DEFB1 (hBD-1) induced with 10 μM PonA, 24-72 h
Procedure: Reactions were performed three times in triplicate.
DU145, PC3 and LNCaP cells […] were transfected with 0.5 μg of the PAX2 siRNA pool or control siRNA pool using Codebreaker transfection reagent according to the manufacturer's protocol (Promega). Next, cell suspensions were diluted and seeded onto a 96-well plate at 1-5×10^3 cells per well and allowed to grow for 2-, 4- or 6 days. After culture, cell viability was determined by measuring the conversion of 3-[4,5-dimethylthiazol-2yl]-2,5 diphenyl tetrazolium bromide, MTT (Promega), to a colored formazan product. Absorbance was read at 540 nm on a scanning multiwell spectrophotometer.
(§1) To examine the effects of hBD-1 on cell growth, metabolic 3-[4,5-dimethylthiazol-2yl]-2,5-diphenyl tetrazolium bromide (MTT) assay was performed. DU145, LNCaP, PC3 and PC3/AR+ cells co-transfected with pvgRXR plasmid and pIND/hBD-1 construct or control pvgRXR plasmid were seeded onto a 96-well plate at 1-5×10^3 cells per well. Twenty-four hours after seeding, fresh growth medium was added containing 10 μM Pon A daily to induce hBD-1 expression for 24, 48 and 72 h after which the MTT assay was performed according to the manufacturer's instructions (Promega). Reactions were performed three times in triplicate.
MTT cytotoxicity assay was performed as described in Example 1.

PC3/AR+ = assay: MTT cell viability assay, PC3/AR+; conditions: PC3 with ectopic AR expression; hBD-1 induced
Procedure: as §1

DU145 [2] = assay: Flow cytometry Annexin V-FITC/PI, DU145
Procedure: The remaining attached cells were harvested by trypsinization and combined with the detached cells and PBS. The cells were then pelleted at 4° C. (500×g) for 5 min, washed twice in PBS, and resuspended in 100 μl of 1× Annexin binding buffer ([…]) containing 5 μl of Annexin V-FITC and 5 μl of PI. The cells were incubated at RT for 15 min in the dark, then diluted with 400 μl of 1× Annexin binding buffer and analyzed by FACscan (Becton Dickinson, San Jose, Calif.). All reactions were performed three times.
PC3 and DU145 cells transfected with the hBD-1 expression system were grown in 60-mm dishes and induced for 12, 24, and 48 h with 10 μM Pon A. The cells were harvested and analyzed by flow cytometry as described in Example 1.

PC3 [3] = assay: Flow cytometry Annexin V-FITC/PI, PC3
Procedure: The remaining attached cells were harvested by trypsinization and combined with the detached cells and PBS. The cells were then pelleted at 4° C. (500×g) for 5 min, washed twice in PBS, and resuspended in 100 μl of 1× Annexin binding buffer (0.1 M Hepes/NaOH at pH 7.4, 1.4 M NaCl, 25 mM CaCl2) containing 5 μl of Annexin V-FITC and 5 μl of PI. The cells were incubated at RT for 15 min in the dark, then diluted with 400 μl of 1× Annexin binding buffer and analyzed by FACscan (Becton Dickinson, San Jose, Calif.). All reactions were performed three times.

DU145 [4] = assay: Pan-caspase detection (FAM-VAD-FMK, confocal), DU145; conditions: DEFB1 (hBD-1) induction 24 h
Procedure: (§2) Detection of caspase activity in the prostate cancer cell lines was performed using APO LOGIX™ Carboxyfluorescin Caspase detection kit (Cell Technology, Mountain View, Calif.). Active caspases were detected through the use of a FAM-VAD-FMK inhibitor that irreversibly binds to active caspases. […] Next, 10 μl of a 30× working dilution of carboxyfluorescein labeled peptide fluoromethyl ketone (FAM-VAD-FMK) was added to 300 μl of media and added to each 35 mm dish. Cells were then incubated for 1 hour at 37° C. under 5% CO2. Then, the medium was aspirated and the cells were washed twice with 2 ml of a 1× Working dilution Wash Buffer. Cells were viewed under differential interference contrast (DIC) or under laser excitation at 488 nm. The fluorescent signal was analyzed using a confocal microscope (Zeiss LSM 5 Pascal) and a 63×DIC oil lens with a Vario 2 RGB Laser Scanning Module.
(§3) Detection of caspase activity in the prostate cancer cell lines was performed s described in Example 1.
(§4) Detection of caspase activity in the prostate cancer cell lines was performeds described in Example 1.
(§5) Detection of caspase activity in the prostate cancer cell lines was performed as described in Example 1.

PC3 [5] = assay: Pan-caspase detection (FAM-VAD-FMK, confocal), PC3; conditions: DEFB1 (hBD-1) induction 24 h
Procedure: as §2, §3, §4, §5

LNCaP [6] = assay: Pan-caspase detection (FAM-VAD-FMK, confocal), LNCaP; conditions: DEFB1 (hBD-1) induction 24 h
Procedure: as §2, §3, §4, §5

DU145 [7] = assay: Membrane integrity AO/EtBr dual staining, DU145
Procedure: (§6) Acridine orange (AO)/ethidium bromide (EtBr) dual staining was performed to identify changes in cell membrane integrity, as well as apoptotic cells by staining the condensed chromatin. AO stains viable cells as well as early apoptotic cells, whereas EtBr stains late stage apoptotic cells that have lost membrane permeability. Briefly, cells were seeded into 2 chamber culture slides (BD Falcon, USA). […] In order to determine the effect of PAX2 inhibition on membrane integrity, separate culture slides containing DU145, PC3 and LNCaP were treated with PAX2 siRNA and incubated for 4 days. […] Fluorescence was viewed by a Zeiss LSM 5 Pascal Vario 2 Laser Scanning Confocal Microscope (Carl Zeiss Jena, Germany). […] Slides were analyzed under 40× magnification and digital images were stored as uncompressed TIFF files and exported into Photoshop CS software (Adobe Systems, San Jose, Calif.) for image processing and hard copy presentation. […]
(§7) Fluorescence was viewed by a Zeiss LSM 5 Pascal Vario 2 Laser Scanning Confocal Microscope (Carl Zeiss). […] Slides were analyzed under 40× magnification and digital images were stored as uncompressed TIFF files and exported into Photoshop CS software (Adobe Systems) for image processing and hard copy presentation. […]

PC3 [8] = assay: Membrane integrity AO/EtBr dual staining, PC3
Procedure: as §6, §7

LNCaP [9] = assay: Membrane integrity AO/EtBr dual staining, LNCaP; conditions: hBD-1 induction 48 h
Procedure: as §6, §7

DU145 [10] = assay: Phase contrast microscopy of cell growth, DU145; conditions: DEFB1 induction 48 h
Procedure: (§8) Cell morphology was analyzed by phase contrast microscopy. […] The following day plasmid-containing cells were induced for a period of 48 h with media containing 10 μM Ponasterone A, while control cells received fresh media. The cells were then viewed under an inverted Zeiss IM 35 microscope (Carl Zeiss, Germany). Phase contrast pictures of a field of cells were obtained using the SPOT Insight Mosaic 4.2 camera (Diagnostic Instruments, USA). Cells were examined by phase contrast microscopy under 32× magnification and digital images were stored as uncompressed TIFF files and exported into Photoshop CS software (Adobe Systems, San Jose, Calif.) for image processing and hard copy presentation.
(§9) The effect of PAX2 knock-down on cell growth was analyzed by phase contrast microscopy as described in Example 1.
(§10) The effect of PAX2 knockdown on cell number was analyzed by phase contrast microscopy as described in Example 1.

PC3 [11] = assay: Phase contrast microscopy of cell growth, PC3; conditions: DEFB1 induction 48 h
Procedure: as §8, §9, §10

LNCaP [12] = assay: Phase contrast microscopy of cell growth, LNCaP; conditions: DEFB1 induction 48 h
Procedure: as §8, §9, §10

caspase activity (green FAM-VAD-FMK staining) (DU145 [4]): green staining
caspase activity (green FAM-VAD-FMK staining) (PC3 [5]): green staining
caspase activity (green FAM-VAD-FMK staining) (LNCaP [6]): no green staining
B1: DEFB1: human beta defensin-1 (SEQ ID NO:63), expressed in cells from Ponasterone A inducible pIND/DEFB1 construct (protein, listed as Homo sapiens)
chain: MRTSYLLLFTLCLLLSEMASGGNFLTGLGHRSDHYNCVSSGGQCLYSACPIFTKIQGTCYRGKAKCCK
effect on cell viability (LNCaP [1]): no significant effect
hBD-1 cytotoxicity, PC3/AR+ compared with PC3 (PC3/AR+): no difference
number of apoptotic cells (annexin V/PI, lower and upper right quadrants) (DU145 [2]; DEFB1 (hBD-1) induction 12 h): 12%
number of apoptotic cells (annexin V/PI, lower and upper right quadrants) (DU145 [2]; DEFB1 (hBD-1) induction 24 h): 34%
number of apoptotic cells (annexin V/PI, lower and upper right quadrants) (DU145 [2]; DEFB1 (hBD-1) induction 48 h): 59%
number of apoptotic cells (annexin V/PI, lower and upper right quadrants) (PC3 [3]; DEFB1 (hBD-1) induction 12 h): 10%
number of apoptotic cells (annexin V/PI, lower and upper right quadrants) (PC3 [3]; DEFB1 (hBD-1) induction 24 h): 20%
membrane integrity (AO/EtBr staining) (DU145 [7]; DEFB1 (hBD-1) induction 24 h): accumulation of EtBr in the cytoplasm
membrane integrity (AO/EtBr staining) (DU145 [7]; DEFB1 (hBD-1) induction 48 h): possessed condensed nuclei and appeared yellow
membrane integrity (AO/EtBr staining) (PC3 [8]; DEFB1 (hBD-1) induction 24 h): accumulation of EtBr in the cytoplasm
membrane integrity (AO/EtBr staining) (PC3 [8]; DEFB1 (hBD-1) induction 48 h): possessed condensed nuclei and appeared yellow
membrane integrity (AO/EtBr staining) (LNCaP [9]): no observable alterations to membrane integrity
cell number (DU145 [10]): significant reduction in cell number
cell number (PC3 [11]): significant reduction in cell number
cell proliferation (LNCaP [12]): no effect on cell proliferation
